Measurements taken from paper PMC10397247.

What was measured:
O8-bA = molecular target: T1, O8-bA; assay: two-hybrid library CCNG1;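 note: natural log of median RNA to DNA barcode read ratio; higher means stronger binding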
T1 chain: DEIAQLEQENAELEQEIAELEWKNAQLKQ

O9-bA = molecular target: T2, O9-bA; assay: two-hybrid library CCNG1;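 note: natural log of median RNA to DNA barcode read ratio; higher means stronger binding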
T2 chain: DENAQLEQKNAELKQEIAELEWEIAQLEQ

4H3605-AA = molecular target: T3, 4H3605-AA; assay: two-hybrid library CCmax;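 note: natural log of median RNA to DNA barcode read ratio; higher means stronger binding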
T3 chain: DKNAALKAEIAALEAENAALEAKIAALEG

4H3625-AA = molecular target: T4, 4H3625-AA; assay: two-hybrid library CCmax; details: mean of both orientations;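 note: natural log of median RNA to DNA barcode read ratio; higher means stronger binding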
T4 chain: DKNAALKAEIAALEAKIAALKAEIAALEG

4H3664-AA = molecular target: T5, 4H3664-AA; assay: two-hybrid library CCmax; details: mean of both orientations;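 note: natural log of median RNA to DNA barcode read ratio; higher means stronger binding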
T5 chain: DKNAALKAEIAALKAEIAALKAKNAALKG

4H369-AA = molecular target: T6, 4H369-AA; assay: two-hybrid library CCmax; details: mean of both orientations;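 note: natural log of median RNA to DNA barcode read ratio; higher means stronger binding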
T6 chain: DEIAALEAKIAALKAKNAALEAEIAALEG

4H3922-AA = molecular target: T7, 4H3922-AA; assay: two-hybrid library CCmax; details: mean of both orientations
T7 chain: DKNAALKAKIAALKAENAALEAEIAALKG

4H4033-AA = molecular target: T8, 4H4033-AA; assay: two-hybrid library CCmax; details: mean of both orientations
T8 chain: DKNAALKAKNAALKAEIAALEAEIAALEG

4H481-AA = molecular target: T9, 4H481-AA; assay: two-hybrid library CCmax; details: mean of both orientations
T9 chain: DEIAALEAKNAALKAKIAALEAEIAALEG

4H55-AA = molecular target: T10, 4H55-AA; assay: two-hybrid library CCmax
T10 chain: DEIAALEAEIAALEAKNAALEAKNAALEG

4H662-AA = molecular target: T11, 4H662-AA; assay: two-hybrid library CCmax; details: mean of both orientations
T11 chain: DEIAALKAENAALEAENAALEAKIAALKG

4H2620-AA = molecular target: T12, 4H2620-AA; assay: two-hybrid library CCmax
T12 chain: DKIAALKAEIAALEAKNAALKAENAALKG

4H2648-AA = molecular target: T13, 4H2648-AA; assay: two-hybrid library CCmax; details: mean of both orientations
T13 chain: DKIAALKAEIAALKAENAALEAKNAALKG

4H2907-AA = molecular target: T14, 4H2907-AA; assay: two-hybrid library CCmax; details: mean of both orientations
T14 chain: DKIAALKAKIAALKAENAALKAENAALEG

4H3056-AA = molecular target: T15, 4H3056-AA; assay: two-hybrid library CCmax; details: mean of both orientations
T15 chain: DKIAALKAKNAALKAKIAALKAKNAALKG

4H3133-AA = molecular target: T16, 4H3133-AA; assay: two-hybrid library CCmax; details: mean of both orientations
T16 chain: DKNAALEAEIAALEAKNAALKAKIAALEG

4H3162-AA = molecular target: T17, 4H3162-AA; assay: two-hybrid library CCmax; details: mean of both orientations
T17 chain: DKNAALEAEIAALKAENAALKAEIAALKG

4H32-AA = molecular target: T18, 4H32-AA; assay: two-hybrid library CCmax; details: mean of both orientations
T18 chain: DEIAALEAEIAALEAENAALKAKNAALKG

4H3378-AA = molecular target: T19, 4H3378-AA; assay: two-hybrid library CCmax; details: mean of both orientations
T19 chain: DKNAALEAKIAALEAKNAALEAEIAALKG

4H340-AA = molecular target: T20, 4H340-AA; assay: two-hybrid library CCmax; details: mean of both orientations
T20 chain: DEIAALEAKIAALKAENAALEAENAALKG

4H3413-AA = molecular target: T21, 4H3413-AA; assay: two-hybrid library CCmax; details: mean of both orientations
T21 chain: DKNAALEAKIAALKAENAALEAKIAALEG

4H3588-AA = molecular target: T22, 4H3588-AA; assay: two-hybrid library CCmax; details: mean of both orientations
T22 chain: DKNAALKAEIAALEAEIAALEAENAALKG

4H3606-AA = molecular target: T23, 4H3606-AA; assay: two-hybrid library CCmax; details: mean of both orientations
T23 chain: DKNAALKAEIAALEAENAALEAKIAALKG

4H3631-AA = molecular target: T24, 4H3631-AA; assay: two-hybrid library CCmax; details: mean of both orientations
T24 chain: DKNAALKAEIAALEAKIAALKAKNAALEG

4H3697-AA = molecular target: T25, 4H3697-AA; assay: two-hybrid library CCmax
T25 chain: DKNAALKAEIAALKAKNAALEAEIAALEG

4H3718-AA = molecular target: T26, 4H3718-AA; assay: two-hybrid library CCmax; details: mean of both orientations
T26 chain: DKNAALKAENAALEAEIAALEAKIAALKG

4H384-AA = molecular target: T27, 4H384-AA; assay: two-hybrid library CCmax; details: mean of both orientations
T27 chain: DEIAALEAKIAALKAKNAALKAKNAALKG

4H3865-AA = molecular target: T28, 4H3865-AA; assay: two-hybrid library CCmax; details: mean of both orientations
T28 chain: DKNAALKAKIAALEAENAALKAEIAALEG

4H697-AA = molecular target: T29, 4H697-AA; assay: two-hybrid library CCmax; details: mean of both orientations
T29 chain: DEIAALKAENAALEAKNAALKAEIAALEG

4H982-AA = molecular target: T30, 4H982-AA; assay: two-hybrid library CCmax; details: mean of both orientations
T30 chain: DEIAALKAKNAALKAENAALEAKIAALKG

DEIAQLEQENAELEQEIAELEWKNAQLKQ [O8-bA]
interaction score (O8-bA): -0.832
interaction score (O9-bA): 0.317

DKNAALKAEIAALEAENAALEAKIAALEG [4H3605-AA]
interaction score (4H3605-AA): -1.34
interaction score (4H3625-AA): -0.874
interaction score (4H3664-AA): -1.67
interaction score (4H369-AA): 1.77
interaction score (4H3922-AA): -0.251
interaction score (4H4033-AA): -1.31
interaction score (4H481-AA): 0.557
interaction score (4H55-AA): -1.29
interaction score (4H662-AA): -1.77

DKIAALKAEIAALEAKNAALKAENAALKG [4H2620-AA]
interaction score (4H2620-AA): 0.586
interaction score (4H2648-AA): 1.77
interaction score (4H2907-AA): 1.23
interaction score (4H3056-AA): -1.79
interaction score (4H3133-AA): -1.58
interaction score (4H3162-AA): -1.82
interaction score (4H32-AA): 1.05
interaction score (4H3378-AA): -1.66
interaction score (4H340-AA): 2.42
interaction score (4H3413-AA): -0.901
interaction score (4H3588-AA): 0.147
interaction score (4H3606-AA): -0.861
interaction score (4H3631-AA): -0.556
interaction score (4H3697-AA): -1.64
interaction score (4H3718-AA): -0.835
interaction score (4H384-AA): 0.949
interaction score (4H3865-AA): -1.61
interaction score (4H697-AA): -1.54
interaction score (4H982-AA): -0.887
